Test results reported in US20110263827A1 (AbbVie / Abbott, published 2011).

T1: PLGF (UniProt P49763-2 21-149, limits assumed, biotinylated)
T1 construct: ELISA antigen; also called P1GF
T1 sequence (looked up): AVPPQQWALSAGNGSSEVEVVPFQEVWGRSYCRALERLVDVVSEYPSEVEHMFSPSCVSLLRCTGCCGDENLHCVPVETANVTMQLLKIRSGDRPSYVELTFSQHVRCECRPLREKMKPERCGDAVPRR


How the values were obtained:
DLL-4 = biological target: T2, DLL-4 (UniProt Q9NR61 27-524, limits assumed, biotinylated); experiment: direct bind ELISA, N-term VD;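 note: antibody or DVD-Ig preparations bound to immobilized target antigen on ELISA plates, 1 h at room temperature, TMB detection read as absorbance at 450 nm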
T2 construct: ELISA antigen

EGFR [1] = biological target: T3, EGFR (UniProt P00533 25-645, limits assumed, biotinylated); experiment: direct bind ELISA, C-term VD;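 note: ELISA with antibody or DVD-Ig preparations applied to target antigen-coated plates for 1 h at room temperature, TMB colour development, absorbance read at 450 nm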
T3 construct: ELISA antigen; construct not described

PLGF [2] = biological target: T1, PLGF; experiment: direct bind ELISA, N-term VD;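 note: antibody or DVD-Ig preparations bound to immobilized target antigen on ELISA plates, 1 h at room temperature, TMB detection read as absorbance at 450 nm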
EGFR [3] = biological target: T3, EGFR; experiment: direct bind ELISA, N-term VD;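 note: antibody or DVD-Ig preparations bound to immobilized target antigen on ELISA plates, 1 h at room temperature, TMB detection read as absorbance at 450 nm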
PLGF [4] = biological target: T1, PLGF; experiment: direct bind ELISA, C-term VD;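 note: ELISA with antibody or DVD-Ig preparations applied to target antigen-coated plates for 1 h at room temperature, TMB colour development, absorbance read at 450 nm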

EC50 (DLL-4) | EC50 (EGFR [1]) | EC50 (PLGF [2]) | EC50 (EGFR [3]) | EC50 (PLGF [4]) | Binder
0.37 nM | 55.2 nM |  |  |  | DVD782 (bispecific antibody, DVD-Ig; HC L, LC L; variable parts only) VH: EVQLVESGGGLVQPGGSLRLSCAASGFTFTDNWISWVRQAPGKGLEWVGYISPNSGFTYYADSVKGRFTISADTSKNTAYLQMNSLRAEDTAVYYCARDNFGGYFDYWGQGTLVTVSSASTKGPSVFPLAPQVQLQESGPGLVKPSQTLSLTCTVSGYSISSDFAWNWIRQPPGKGLEWMGYISYSGNTRYQPSLKSRITISRDTSKNQFFLKLNSVTAADTATYYCVTAGRGFPYWGQGTLVTVSS VL: DIQMTQSPSSLSASVGDRVTITCRASQDVSTAVAWYQQKPGKAPKLLIYSASFLYSGVPSRFSGSGSGTDFTLTISSLQPEDFATTYYCQQSYTGTVTFGQGTKVEIKRTVAAPSVFIFPPDIQMTQSPSSMSVSVGDRVTITCHSSQDINSNIGWLQQKPGKSFKGLIYHGTNLDDGVPSRFSGSGSGTDYTLTISSLQPEDFATYYCVQYAQFPWTFGGGTKLEIKR
0.36 nM | 51.7 nM |  |  |  | DVD842 (bispecific antibody, DVD-Ig; HC S, LC L; variable parts only) VH: EVQLVESGGGLVQPGGSLRLSCAASGFTFTDNWISWVRQAPGKGLEWVGYISPNSGFTYYADSVKGRFTISADTSKNTAYLQMNSLRAEDTAVYYCARDNFGGYFDYWGQGTLVTVSSASTKGPQVQLQESGPGLVKPSQTLSLTCTVSGYSISSDFAWNWIRQPPGKGLEWMGYISYSGNTRYQPSLKSRITISRDTSKNQFFLKLNSVTAADTATYYCVTAGRGFPYWGQGTLVTVSS VL: DIQMTQSPSSLSASVGDRVTITCRASQDVSTAVAWYQQKPGKAPKLLIYSASFLYSGVPSRFSGSGSGTDFTLTISSLQPEDFATTYYCQQSYTGTVTFGQGTKVEIKRTVAAPSVFIFPPDIQMTQSPSSMSVSVGDRVTITCHSSQDINSNIGWLQQKPGKSFKGLIYHGTNLDDGVPSRFSGSGSGTDYTLTISSLQPEDFATYYCVQYAQFPWTFGGGTKLEIKR
0.39 nM | 77.3 nM |  |  |  | DVD812 (bispecific antibody, DVD-Ig; HC L, LC S; variable parts only) VH: EVQLVESGGGLVQPGGSLRLSCAASGFTFTDNWISWVRQAPGKGLEWVGYISPNSGFTYYADSVKGRFTISADTSKNTAYLQMNSLRAEDTAVYYCARDNFGGYFDYWGQGTLVTVSSASTKGPSVFPLAPQVQLQESGPGLVKPSQTLSLTCTVSGYSISSDFAWNWIRQPPGKGLEWMGYISYSGNTRYQPSLKSRITISRDTSKNQFFLKLNSVTAADTATYYCVTAGRGFPYWGQGTLVTVSS VL: DIQMTQSPSSLSASVGDRVTITCRASQDVSTAVAWYQQKPGKAPKLLIYSASFLYSGVPSRFSGSGSGTDFTLTISSLQPEDFATTYYCQQSYTGTVTFGQGTKVEIKRTVAAPDIQMTQSPSSMSVSVGDRVTITCHSSQDINSNIGWLQQKPGKSFKGLIYHGTNLDDGVPSRFSGSGSGTDYTLTISSLQPEDFATYYCVQYAQFPWTFGGGTKLEIKR
 | 41.4 nM | 0.26 nM |  |  | DVD784 (bispecific antibody, DVD-Ig; HC L, LC L; variable parts only) VH: QVQLQQSGAELVKPGASVKISCKASGYTFTDYYINWVKLAPGQGLEWIGWIYPGSGNTKYNEKFKGKATLTIDTSSSTAYMQLSSLTSEDTAVYFCVRDSPFFDYWGQGTLLTVSSASTKGPSVFPLAPQVQLQESGPGLVKPSQTLSLTCTVSGYSISSDFAWNWIRQPPGKGLEWMGYISYSGNTRYQPSLKSRITISRDTSKNQFFLKLNSVTAADTATYYCVTAGRGFPYWGQGTLVTVSS VL: DIVLTQSPDSLAVSLGERVTMNCKSSQSLLNSGMRKSFLAWYQQKPGQSPKLLIYWASTRESGVPDRFTGSGSGTDFTLTISSVQAEDVAVYYCKQSYHLFTFGSGTKLEIKRTVAAPSVFIFPPDIQMTQSPSSMSVSVGDRVTITCHSSQDINSNIGWLQQKPGKSFKGLIYHGTNLDDGVPSRFSGSGSGTDYTLTISSLQPEDFATYYCVQYAQFPWTFGGGTKLEIKR
 | 50.4 nM | 0.23 nM |  |  | DVD814 (bispecific antibody, DVD-Ig; HC L, LC S; variable parts only) VH: QVQLQQSGAELVKPGASVKISCKASGYTFTDYYINWVKLAPGQGLEWIGWIYPGSGNTKYNEKFKGKATLTIDTSSSTAYMQLSSLTSEDTAVYFCVRDSPFFDYWGQGTLLTVSSASTKGPSVFPLAPQVQLQESGPGLVKPSQTLSLTCTVSGYSISSDFAWNWIRQPPGKGLEWMGYISYSGNTRYQPSLKSRITISRDTSKNQFFLKLNSVTAADTATYYCVTAGRGFPYWGQGTLVTVSS VL: DIVLTQSPDSLAVSLGERVTMNCKSSQSLLNSGMRKSFLAWYQQKPGQSPKLLIYWASTRESGVPDRFTGSGSGTDFTLTISSVQAEDVAVYYCKQSYHLFTFGSGTKLEIKRTVAAPDIQMTQSPSSMSVSVGDRVTITCHSSQDINSNIGWLQQKPGKSFKGLIYHGTNLDDGVPSRFSGSGSGTDYTLTISSLQPEDFATYYCVQYAQFPWTFGGGTKLEIKR
 | 45.5 nM | 0.23 nM |  |  | DVD844 (bispecific antibody, DVD-Ig; HC S, LC L; variable parts only) VH: QVQLQQSGAELVKPGASVKISCKASGYTFTDYYINWVKLAPGQGLEWIGWIYPGSGNTKYNEKFKGKATLTIDTSSSTAYMQLSSLTSEDTAVYFCVRDSPFFDYWGQGTLLTVSSASTKGPQVQLQESGPGLVKPSQTLSLTCTVSGYSISSDFAWNWIRQPPGKGLEWMGYISYSGNTRYQPSLKSRITISRDTSKNQFFLKLNSVTAADTATYYCVTAGRGFPYWGQGTLVTVSS VL: DIVLTQSPDSLAVSLGERVTMNCKSSQSLLNSGMRKSFLAWYQQKPGQSPKLLIYWASTRESGVPDRFTGSGSGTDFTLTISSVQAEDVAVYYCKQSYHLFTFGSGTKLEIKRTVAAPSVFIFPPDIQMTQSPSSMSVSVGDRVTITCHSSQDINSNIGWLQQKPGKSFKGLIYHGTNLDDGVPSRFSGSGSGTDYTLTISSLQPEDFATYYCVQYAQFPWTFGGGTKLEIKR
 |  |  | 3.41 nM | 0.74 nM | DVD341 (bispecific antibody, DVD-Ig; HC S, LC S; variable parts only) VH: QVQLQESGPGLVKPSQTLSLTCTVSGYSISSDFAWNWIRQPPGKGLEWMGYISYSGNTRYQPSLKSRITISRDTSKNQFFLKLNSVTAADTATYYCVTAGRGFPYWGQGTLVTVSSASTKGPQVQLQQSGAELVKPGASVKISCKASGYTFTDYYINWVKLAPGQGLEWIGWIYPGSGNTKYNEKFKGKATLTIDTSSSTAYMQLSSLTSEDTAVYFCVRDSPFFDYWGQGTLLTVSS VL: DIQMTQSPSSMSVSVGDRVTITCHSSQDINSNIGWLQQKPGKSFKGLIYHGTNLDDGVPSRFSGSGSGTDYTLTISSLQPEDFATYYCVQYAQFPWTFGGGTKLEIKRTVAAPDIVLTQSPDSLAVSLGERVTMNCKSSQSLLNSGMRKSFLAWYQQKPGQSPKLLIYWASTRESGVPDRFTGSGSGTDFTLTISSVQAEDVAVYYCKQSYHLFTFGSGTKLEIKR
 |  |  | 3.88 nM | 0.36 nM | DVD783 (bispecific antibody, DVD-Ig; HC L, LC L; variable parts only) VH: QVQLQESGPGLVKPSQTLSLTCTVSGYSISSDFAWNWIRQPPGKGLEWMGYISYSGNTRYQPSLKSRITISRDTSKNQFFLKLNSVTAADTATYYCVTAGRGFPYWGQGTLVTVSSASTKGPSVFPLAPQVQLQQSGAELVKPGASVKISCKASGYTFTDYYINWVKLAPGQGLEWIGWIYPGSGNTKYNEKFKGKATLTIDTSSSTAYMQLSSLTSEDTAVYFCVRDSPFFDYWGQGTLLTVSS VL: DIQMTQSPSSMSVSVGDRVTITCHSSQDINSNIGWLQQKPGKSFKGLIYHGTNLDDGVPSRFSGSGSGTDYTLTISSLQPEDFATYYCVQYAQFPWTFGGGTKLEIKRTVAAPSVFIFPPDIVLTQSPDSLAVSLGERVTMNCKSSQSLLNSGMRKSFLAWYQQKPGQSPKLLIYWASTRESGVPDRFTGSGSGTDFTLTISSVQAEDVAVYYCKQSYHLFTFGSGTKLEIKR
 |  |  | 3.65 nM | 0.37 nM | DVD843 (bispecific antibody, DVD-Ig; HC S, LC L; variable parts only) VH: QVQLQESGPGLVKPSQTLSLTCTVSGYSISSDFAWNWIRQPPGKGLEWMGYISYSGNTRYQPSLKSRITISRDTSKNQFFLKLNSVTAADTATYYCVTAGRGFPYWGQGTLVTVSSASTKGPQVQLQQSGAELVKPGASVKISCKASGYTFTDYYINWVKLAPGQGLEWIGWIYPGSGNTKYNEKFKGKATLTIDTSSSTAYMQLSSLTSEDTAVYFCVRDSPFFDYWGQGTLLTVSS VL: DIQMTQSPSSMSVSVGDRVTITCHSSQDINSNIGWLQQKPGKSFKGLIYHGTNLDDGVPSRFSGSGSGTDYTLTISSLQPEDFATYYCVQYAQFPWTFGGGTKLEIKRTVAAPSVFIFPPDIVLTQSPDSLAVSLGERVTMNCKSSQSLLNSGMRKSFLAWYQQKPGQSPKLLIYWASTRESGVPDRFTGSGSGTDFTLTISSVQAEDVAVYYCKQSYHLFTFGSGTKLEIKR
 |  |  | 3.41 nM | 0.44 nM | DVD813 (bispecific antibody, DVD-Ig; HC L, LC S; variable parts only) VH: QVQLQESGPGLVKPSQTLSLTCTVSGYSISSDFAWNWIRQPPGKGLEWMGYISYSGNTRYQPSLKSRITISRDTSKNQFFLKLNSVTAADTATYYCVTAGRGFPYWGQGTLVTVSSASTKGPSVFPLAPQVQLQQSGAELVKPGASVKISCKASGYTFTDYYINWVKLAPGQGLEWIGWIYPGSGNTKYNEKFKGKATLTIDTSSSTAYMQLSSLTSEDTAVYFCVRDSPFFDYWGQGTLLTVSS VL: DIQMTQSPSSMSVSVGDRVTITCHSSQDINSNIGWLQQKPGKSFKGLIYHGTNLDDGVPSRFSGSGSGTDYTLTISSLQPEDFATYYCVQYAQFPWTFGGGTKLEIKRTVAAPDIVLTQSPDSLAVSLGERVTMNCKSSQSLLNSGMRKSFLAWYQQKPGQSPKLLIYWASTRESGVPDRFTGSGSGTDFTLTISSVQAEDVAVYYCKQSYHLFTFGSGTKLEIKR
0.32 nM | 189 nM |  |  |  | DVD340 (bispecific antibody, DVD-Ig; HC S, LC S; variable parts only) VH: EVQLVESGGGLVQPGGSLRLSCAASGFTFTDNWISWVRQAPGKGLEWVGYISPNSGFTYYADSVKGRFTISADTSKNTAYLQMNSLRAEDTAVYYCARDNFGGYFDYWGQGTLVTVSSASTKGPQVQLQESGPGLVKPSQTLSLTCTVSGYSISSDFAWNWIRQPPGKGLEWMGYISYSGNTRYQPSLKSRITISRDTSKNQFFLKLNSVTAADTATYYCVTAGRGFPYWGQGTLVTVSS VL: DIQMTQSPSSLSASVGDRVTITCRASQDVSTAVAWYQQKPGKAPKLLIYSASFLYSGVPSRFSGSGSGTDFTLTISSLQPEDFATTYYCQQSYTGTVTFGQGTKVEIKRTVAAPDIQMTQSPSSMSVSVGDRVTITCHSSQDINSNIGWLQQKPGKSFKGLIYHGTNLDDGVPSRFSGSGSGTDYTLTISSLQPEDFATYYCVQYAQFPWTFGGGTKLEIKR
